Source: US7531345B2, “Mutations for enhanced tyrosine production” (Massachusetts Institute of Technology, priority 2005, dated 2009)
Where “and” joins values, the source holds several entries; their conditions need not be identical. Equal values may be shown once.

Columns and labels:
[1] = target: prephenate dehydrogenase (PDH) activity of TyrA (CM/PDH) protein (Escherichia coli, UniProt P07023); experiment: PDH activity measurement with purified TyrA proteins (NADH formation, 340 nm); type: biochemical, Escherichia coli K12; settings: 20 μM tyrosine, purified protein (FIG. 2)
Sequence of prephenate dehydrogenase (PDH) activity of TyrA (CM/PDH) protein (Escherichia coli, UniProt P07023) (P07023 whole entry): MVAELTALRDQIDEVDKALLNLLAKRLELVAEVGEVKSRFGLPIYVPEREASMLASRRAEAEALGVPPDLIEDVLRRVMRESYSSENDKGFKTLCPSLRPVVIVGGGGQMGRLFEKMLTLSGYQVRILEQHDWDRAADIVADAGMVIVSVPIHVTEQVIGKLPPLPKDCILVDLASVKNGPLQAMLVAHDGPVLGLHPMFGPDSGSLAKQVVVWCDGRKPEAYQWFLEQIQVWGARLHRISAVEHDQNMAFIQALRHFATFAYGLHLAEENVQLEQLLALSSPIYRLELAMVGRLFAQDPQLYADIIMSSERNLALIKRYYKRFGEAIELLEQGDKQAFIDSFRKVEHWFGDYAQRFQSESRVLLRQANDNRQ
Procedure: (§1) For high expression levels of the tyrA^fbr genes, the respective pET30::tyrA^fbr plasmids were transformed to E. coli BL21 (DE3) competent cells (Novagen). The cells were cultivated in LB medium plus 20 μg/ml kanamycin and 1 mM isopropyl-β-D-thiogalactoside (IPTG). After reaching an OD600 of ˜1, the cells were collected by centrifugation, resuspended in binding buffer (20 mM Tris/HCl, 0.5 M NaCl, 5 mM imidazole, pH 7.9), and disrupted by sonication with a Branson Sonifier 450. The cell extract was centrifugated at 10,000×g for 15 min, and the supernatant was filtered through a 0.45 μm syringe filter (PALL Gelman Laboratory). The native His6-tagged TyrA protein was purified by pre-charged His-Bind column chromatography according to the manufacturer's protocol (Novagen). The eluated protein solution was desalted by Econo-Paco®10DG columns (Biorad) and concentrated by Centriprep®YM10 centrifugal ultrafiltration devices (Millipore). Expression and purification steps were controlled by SDS-PAGE (Laemmli, U. K. 1970. Nature 227: 680-685). […]
(§2) PDH activities of purified TyrA proteins were determined spectrophotometrically according to NADH formation (Davidson, B. E., and G. S. Hudson. 1987. Methods Enzymol. 142: 440-450). […] The reaction was started by addition of approximately 0.1 μg of enzyme which corresponded to 5-20 μl of enzyme solution, and the absorbance at 340 nm was followed for 2 min. […]

[2] = system: prephenate dehydrogenase (PDH) activity of TyrA (CM/PDH) protein; experiment: as above; type: biochemical, Escherichia coli K12; settings: purified His6-tagged TyrA protein, absence of tyrosine
Procedure: as §1, §2

[3] = system: chorismate mutase (CM) activity of TyrA (CM/PDH) protein; experiment: Chorismate mutase (CM) activity with purified TyrA proteins; type: biochemical, Escherichia coli K12
Procedure: as §1
CM activities were determined spectrophotometrically based on the formation of phenylpyruvate by treatment with HCl (Davidson, B. E., and G. S. Hudson. 1987. Methods Enzymol. 142: 440-450). […] The samples were alkalized with 1 ml of 2.5 M NaOH, and the absorbance was measured at 320 nm according to a blank sample without enzyme. […]

E. coli DH5α = experiment: Growth of E. coli DH5α strains in the presence of m-fluoro-D,L-tyrosine (OD600); type: cell-based, Escherichia coli
Procedure: The growth in E. coli DH5α strains harboring eight different plasmids are presented: −, pZE21::tyr^WT; +, pZE21::tyrA^fbr-5; ▪, pZE21::tyrA^fbr-7; ▴, pZE21::tyrA^fbr-10; ♦, pZE21::tyrA^fbr-13; ▾, pZE21::tyrA^fbr-15; ? , pZE21::tyrA^fbr-18; ●, pZE21::tyrA^fbr-20. […] E. coli cells were cultivated in MOPS-buffered minimal medium containing m-fluoro-D,L-tyrosine. After incubation at 37° C. at 225 rpm on a rotary shaker for 20 h, the optical density at 600 nm (OD600) was measured.
Nucleotide analogue mutagenesis was carried out in the presence of 2 and 20 μM […] (8-oxo-dGTP) and 6-(2-deoxy-β-D-ribofuranosyl)-3,4-dihydro-8H-pyrimido-[4,5-c][1,2]oxazin-7-one (dPTP) (Zaccolo, M., D. et al. 1996, J. Mol. Biol. 255: 589-603). Using the plasmid pZE21::tyrA^WT as template, 10, 20 and 30 amplification cycles with the primers mentioned above were performed. The 1.1 kbp PCR products were gel-purified, and the mutated tyrA genes were amplified in a second PCR reaction under regular conditions. Subsequently, the gel-purified DNA fragments were pooled, digested with KpnI and MluI, ligated into pZE21-MCS1, and transformed to highly competent E. coli DH5α cells (Invitrogen). Putative tyrA^fbr mutants were selected on minimal medium agar plates with 20 μg/ml kanamycin and 2 mM m-flouro-D,L-tyrosine.
Mutants of the tyrA gene from E. coli K12 were generated by error-prone PCR and cloned into pZE21-MCS1. […] From 621 obtained tyrA^fbr mutants, seven mutants were chosen for detailed analyses.

TyrA^WT: wild-type chorismate mutase/prephenate dehydrogenase (T-protein) of E. coli K12, His6-tagged, purified
specific PDH activity in the presence of tyrosine, relative to activity in the absence of tyrosine [1]: less than 10% | PDH activity, 0 μM Tyrosine [2]: 29.8 U/mg and 29.80 U/mg | CM activity, 100 μM Tyrosine ([3]; 100 μM tyrosine in the presence of 100 μM NAD+): 1.23 U/mg | CM activity, 0 μM Tyrosine ([3]; absence of tyrosine): 1.32 U/mg

N[C@@H](Cc1ccc(O)cc1)C(=O)O [L-tyrosine]
effect of L-tyrosine on growth inhibited by m-fluoro-D,L-tyrosine (E. coli DH5α; E. coli DH5α without plasmid, equimolar amounts of L-tyrosine): restored growth

NC(Cc1ccc(O)c(F)c1)C(=O)O (racemic) [m-fluoro-D,L-tyrosine]
concentration of m-fluoro-D,L-tyrosine inhibiting growth (E. coli DH5α; E. coli DH5α without plasmid): ≥ 0.1 mM | effect on growth of E. coli DH5α harboring plasmid pZE21::tyrA^WT (E. coli DH5α; selection at ≧2 mM m-fluoro-D,L-tyrosine): inhibits growth
